From US20210230570

What was measured:
[1] = biological target: Factor X (FX), P00742
[2] = biological target: Factor X, P00742
[3] = biological target: plasma purified human AT-III (antithrombin III), in complex with full-length unfractionated heparin (AT-III/UFH)
[4] = biological target: plasma purified human antithrombin III (AT-III) in complex with full-length unfractionated heparin (UFH)

Chain of Factor X (FX), P00742 (P00742 whole entry, looked up): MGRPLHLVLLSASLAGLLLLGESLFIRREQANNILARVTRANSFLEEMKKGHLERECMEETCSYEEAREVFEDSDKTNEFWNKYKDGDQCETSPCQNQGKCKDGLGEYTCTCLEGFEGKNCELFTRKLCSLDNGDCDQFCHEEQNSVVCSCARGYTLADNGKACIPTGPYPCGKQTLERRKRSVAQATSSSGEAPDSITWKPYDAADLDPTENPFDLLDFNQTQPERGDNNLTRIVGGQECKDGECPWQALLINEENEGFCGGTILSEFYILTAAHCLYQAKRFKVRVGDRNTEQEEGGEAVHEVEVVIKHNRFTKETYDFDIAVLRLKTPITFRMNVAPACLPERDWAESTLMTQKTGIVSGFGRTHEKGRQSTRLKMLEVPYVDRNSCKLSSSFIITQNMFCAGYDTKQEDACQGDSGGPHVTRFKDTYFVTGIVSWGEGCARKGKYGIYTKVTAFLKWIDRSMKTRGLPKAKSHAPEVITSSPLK
Chain of Factor X, P00742 (P00742 whole entry, looked up): as above

Row | Protein | kcat/KM [1] | kcat of FX activation by FIXa (Xase complex with FVIIIa, PC/PS vesicles, Ca2+) [2] | K0.5-mut/K0.5-wt (against Catalyst Biosciences WT FIXa) [3] | K0.5-mut/K0.5-wt [4]
1 | FIXa-I251S/R318Y/R338E/E410N (protein) chain 1: YNSGKLEEFVQGNLERECMEEKCSFEEAREVFENTERTTEFWKQYVDGDQCESNPCLNGGSCKDDINSYECWCPFGFEGKNCELDVTCNIKNGRCEQFCKNSADNKVVCSCTEGYRLAENQKSCEPAVPFPCGRVSVSQTSKLTR chain 2: VVGGEDAKPGQFPWQVVLNGKVDAFCGGSIVNEKWIVTAAHCVETGVKITVVAGEHNIEETEHTEQKRNVSRIIPHHNYNAAINKYNHDIALLELDEPLVLNSYVTPICIADKEYTNIFLKFGSGYVSGWGRVFHKGYSALVLQYLRVPLVDRATCLESTKFTIYNNMFCAGFHEGGRDSCQGDSGGPHVTEVEGTSFLTGIISWGEECAMKGKYGIYTKVSRYVNWIKNKTKLT | 3.9e+08 M⁻¹ s⁻¹ | 6.2 s⁻¹ | 303 | 
2 | FIXa-Y155F/K247N/N249S/R318Y/R338E/R403E/E410N (protein) chain 1: YNSGKLEEFVQGNLERECMEEKCSFEEAREVFENTERTTEFWKQYVDGDQCESNPCLNGGSCKDDINSYECWCPFGFEGKNCELDVTCNIKNGRCEQFCKNSADNKVVCSCTEGYRLAENQKSCEPAVPFPCGRVSVSQTSKLTR chain 2: VVGGEDAKPGQFPWQVVLNGKVDAFCGGSIVNEKWIVTAAHCVETGVKITVVAGEHNIEETEHTEQNRSVIRIIPHHNYNAAINKYNHDIALLELDEPLVLNSYVTPICIADKEYTNIFLKFGSGYVSGWGRVFHKGYSALVLQYLRVPLVDRATCLESTKFTIYNNMFCAGFHEGGRDSCQGDSGGPHVTEVEGTSFLTGIISWGEECAMKGKYGIYTKVSEYVNWIKNKTKLT | 1.9e+08 M⁻¹ s⁻¹ | 6.5 s⁻¹ | > 517 | 
3 | FIXa-Y155F/K247N/N249S/R318Y/R338E/E410N (protein) chain 1: YNSGKLEEFVQGNLERECMEEKCSFEEAREVFENTERTTEFWKQYVDGDQCESNPCLNGGSCKDDINSYECWCPFGFEGKNCELDVTCNIKNGRCEQFCKNSADNKVVCSCTEGYRLAENQKSCEPAVPFPCGRVSVSQTSKLTR chain 2: VVGGEDAKPGQFPWQVVLNGKVDAFCGGSIVNEKWIVTAAHCVETGVKITVVAGEHNIEETEHTEQNRSVIRIIPHHNYNAAINKYNHDIALLELDEPLVLNSYVTPICIADKEYTNIFLKFGSGYVSGWGRVFHKGYSALVLQYLRVPLVDRATCLESTKFTIYNNMFCAGFHEGGRDSCQGDSGGPHVTEVEGTSFLTGIISWGEECAMKGKYGIYTKVSRYVNWIKNKTKLT | 3.3e+08 M⁻¹ s⁻¹ | 4.3 s⁻¹ | 200 | 
4 | FIXa-R318Y/R338E/R403E/E410S (protein) chain 1: YNSGKLEEFVQGNLERECMEEKCSFEEAREVFENTERTTEFWKQYVDGDQCESNPCLNGGSCKDDINSYECWCPFGFEGKNCELDVTCNIKNGRCEQFCKNSADNKVVCSCTEGYRLAENQKSCEPAVPFPCGRVSVSQTSKLTR chain 2: VVGGEDAKPGQFPWQVVLNGKVDAFCGGSIVNEKWIVTAAHCVETGVKITVVAGEHNIEETEHTEQKRNVIRIIPHHNYNAAINKYNHDIALLELDEPLVLNSYVTPICIADKEYTNIFLKFGSGYVSGWGRVFHKGYSALVLQYLRVPLVDRATCLESTKFTIYNNMFCAGFHEGGRDSCQGDSGGPHVTEVEGTSFLTGIISWGEECAMKGKYGIYTKVSEYVNWIKSKTKLT | 2.1e+08 M⁻¹ s⁻¹ | 5.8 s⁻¹ | > 517 | 
5 | FIXa-R318Y/R338E/R403E/E410N/T412A (protein) chain 1: YNSGKLEEFVQGNLERECMEEKCSFEEAREVFENTERTTEFWKQYVDGDQCESNPCLNGGSCKDDINSYECWCPFGFEGKNCELDVTCNIKNGRCEQFCKNSADNKVVCSCTEGYRLAENQKSCEPAVPFPCGRVSVSQTSKLTR chain 2: VVGGEDAKPGQFPWQVVLNGKVDAFCGGSIVNEKWIVTAAHCVETGVKITVVAGEHNIEETEHTEQKRNVIRIIPHHNYNAAINKYNHDIALLELDEPLVLNSYVTPICIADKEYTNIFLKFGSGYVSGWGRVFHKGYSALVLQYLRVPLVDRATCLESTKFTIYNNMFCAGFHEGGRDSCQGDSGGPHVTEVEGTSFLTGIISWGEECAMKGKYGIYTKVSEYVNWIKNKAKLT | 2.6e+08 M⁻¹ s⁻¹ | 8.4 s⁻¹ | > 517 | 
6 | FIXa-R318Y/R338E/R403E/E410N/T412V (protein) chain 1: YNSGKLEEFVQGNLERECMEEKCSFEEAREVFENTERTTEFWKQYVDGDQCESNPCLNGGSCKDDINSYECWCPFGFEGKNCELDVTCNIKNGRCEQFCKNSADNKVVCSCTEGYRLAENQKSCEPAVPFPCGRVSVSQTSKLTR chain 2: VVGGEDAKPGQFPWQVVLNGKVDAFCGGSIVNEKWIVTAAHCVETGVKITVVAGEHNIEETEHTEQKRNVIRIIPHHNYNAAINKYNHDIALLELDEPLVLNSYVTPICIADKEYTNIFLKFGSGYVSGWGRVFHKGYSALVLQYLRVPLVDRATCLESTKFTIYNNMFCAGFHEGGRDSCQGDSGGPHVTEVEGTSFLTGIISWGEECAMKGKYGIYTKVSEYVNWIKNKVKLT | 1.9e+08 M⁻¹ s⁻¹ | 7.9 s⁻¹ | > 517 | 
7 | FIXa Y259F/K265T/Y345T (protein) chain 1: YNSGKLEEFVQGNLERECMEEKCSFEEAREVFENTERTTEFWKQYVDGDQCESNPCLNGGSCKDDINSYECWCPFGFEGKNCELDVTCNIKNGRCEQFCKNSADNKVVCSCTEGYRLAENQKSCEPAVPFPCGRVSVSQTSKLTR chain 2: VVGGEDAKPGQFPWQVVLNGKVDAFCGGSIVNEKWIVTAAHCVETGVKITVVAGEHNIEETEHTEQKRNVIRIIPHHNFNAAINTYNHDIALLELDEPLVLNSYVTPICIADKEYTNIFLKFGSGYVSGWGRVFHKGRSALVLQYLRVPLVDRATCLRSTKFTITNNMFCAGFHEGGRDSCQGDSGGPHVTEVEGTSFLTGIISWGEECAMKGKYGIYTKVSRYVNWIKEKTKLT |  |  |  | 0.3 fold
8 | FIXa Y155F/K228N/R318Y/R338E/R403E/E410N (protein) chain 1: YNSGKLEEFVQGNLERECMEEKCSFEEAREVFENTERTTEFWKQYVDGDQCESNPCLNGGSCKDDINSYECWCPFGFEGKNCELDVTCNIKNGRCEQFCKNSADNKVVCSCTEGYRLAENQKSCEPAVPFPCGRVSVSQTSKLTR chain 2: VVGGEDAKPGQFPWQVVLNGKVDAFCGGSIVNEKWIVTAAHCVETGVNITVVAGEHNIEETEHTEQKRNVIRIIPHHNYNAAINKYNHDIALLELDEPLVLNSYVTPICIADKEYTNIFLKFGSGYVSGWGRVFHKGYSALVLQYLRVPLVDRATCLESTKFTIYNNMFCAGFHEGGRDSCQGDSGGPHVTEVEGTSFLTGIISWGEECAMKGKYGIYTKVSEYVNWIKNKTKLT |  |  |  | > 517 fold
9 | FIXa D85N/K228N/R318Y/R338E/R403E/E410N (protein) chain 1: YNSGKLEEFVQGNLERECMEEKCSFEEAREVFENTERTTEFWKQYVDGDQCESNPCLNGGSCKDDINSYECWCPFGFEGKNCELNVTCNIKNGRCEQFCKNSADNKVVCSCTEGYRLAENQKSCEPAVPFPCGRVSVSQTSKLTR chain 2: VVGGEDAKPGQFPWQVVLNGKVDAFCGGSIVNEKWIVTAAHCVETGVNITVVAGEHNIEETEHTEQKRNVIRIIPHHNYNAAINKYNHDIALLELDEPLVLNSYVTPICIADKEYTNIFLKFGSGYVSGWGRVFHKGYSALVLQYLRVPLVDRATCLESTKFTIYNNMFCAGFHEGGRDSCQGDSGGPHVTEVEGTSFLTGIISWGEECAMKGKYGIYTKVSEYVNWIKNKTKLT |  |  |  | > 517 fold
10 | FIXa K228N/R318Y/R338E/R403E/E410N (protein) chain 1: YNSGKLEEFVQGNLERECMEEKCSFEEAREVFENTERTTEFWKQYVDGDQCESNPCLNGGSCKDDINSYECWCPFGFEGKNCELDVTCNIKNGRCEQFCKNSADNKVVCSCTEGYRLAENQKSCEPAVPFPCGRVSVSQTSKLTR chain 2: VVGGEDAKPGQFPWQVVLNGKVDAFCGGSIVNEKWIVTAAHCVETGVNITVVAGEHNIEETEHTEQKRNVIRIIPHHNYNAAINKYNHDIALLELDEPLVLNSYVTPICIADKEYTNIFLKFGSGYVSGWGRVFHKGYSALVLQYLRVPLVDRATCLESTKFTIYNNMFCAGFHEGGRDSCQGDSGGPHVTEVEGTSFLTGIISWGEECAMKGKYGIYTKVSEYVNWIKNKTKLT |  |  |  | > 517 fold
11 | FIXa-K228N/K247N/N249S/R318Y/R338E/R403E/E410N (protein) chain 1: YNSGKLEEFVQGNLERECMEEKCSFEEAREVFENTERTTEFWKQYVDGDQCESNPCLNGGSCKDDINSYECWCPFGFEGKNCELDVTCNIKNGRCEQFCKNSADNKVVCSCTEGYRLAENQKSCEPAVPFPCGRVSVSQTSKLTR chain 2: VVGGEDAKPGQFPWQVVLNGKVDAFCGGSIVNEKWIVTAAHCVETGVNITVVAGEHNIEETEHTEQNRSVIRIIPHHNYNAAINKYNHDIALLELDEPLVLNSYVTPICIADKEYTNIFLKFGSGYVSGWGRVFHKGYSALVLQYLRVPLVDRATCLESTKFTIYNNMFCAGFHEGGRDSCQGDSGGPHVTEVEGTSFLTGIISWGEECAMKGKYGIYTKVSEYVNWIKNKTKLT |  | 6.1 s⁻¹ | > 517 | 
12 | FIXa-K247N/N249S/R318Y/R338E/E410N (protein) chain 1: YNSGKLEEFVQGNLERECMEEKCSFEEAREVFENTERTTEFWKQYVDGDQCESNPCLNGGSCKDDINSYECWCPFGFEGKNCELDVTCNIKNGRCEQFCKNSADNKVVCSCTEGYRLAENQKSCEPAVPFPCGRVSVSQTSKLTR chain 2: VVGGEDAKPGQFPWQVVLNGKVDAFCGGSIVNEKWIVTAAHCVETGVKITVVAGEHNIEETEHTEQNRSVIRIIPHHNYNAAINKYNHDIALLELDEPLVLNSYVTPICIADKEYTNIFLKFGSGYVSGWGRVFHKGYSALVLQYLRVPLVDRATCLESTKFTIYNNMFCAGFHEGGRDSCQGDSGGPHVTEVEGTSFLTGIISWGEECAMKGKYGIYTKVSRYVNWIKNKTKLT |  | 3.8 s⁻¹ | 78.3 | 
13 | FIXa-A103N/N105S/K247N/N249S/R318Y/R338E/R403E/E410N (protein) chain 1: YNSGKLEEFVQGNLERECMEEKCSFEEAREVFENTERTTEFWKQYVDGDQCESNPCLNGGSCKDDINSYECWCPFGFEGKNCELDVTCNIKNGRCEQFCKNSNDSKVVCSCTEGYRLAENQKSCEPAVPFPCGRVSVSQTSKLTR chain 2: VVGGEDAKPGQFPWQVVLNGKVDAFCGGSIVNEKWIVTAAHCVETGVKITVVAGEHNIEETEHTEQNRSVIRIIPHHNYNAAINKYNHDIALLELDEPLVLNSYVTPICIADKEYTNIFLKFGSGYVSGWGRVFHKGYSALVLQYLRVPLVDRATCLESTKFTIYNNMFCAGFHEGGRDSCQGDSGGPHVTEVEGTSFLTGIISWGEECAMKGKYGIYTKVSEYVNWIKNKTKLT | 1.5e+08 M⁻¹ s⁻¹ | 4.1 s⁻¹ | 129 | 
